According to the Immune Epitope Database (IEDB):

Tests used:
HLA-B*07:02 = experiment: IEDB peptide-MHC binding, purified MHC/competitive/radioactivity; filed as Kd, often an IC50 or EC50 that approximates it; ≥ and ≤ were set here for values at or beyond the usual limits of such assays
HLA-B*35:01 [1] = experiment: as above
HLA-B*51:01 [2] = experiment: as above
HLA-B*53:01 = experiment: as above
HLA-B*54:01 = experiment: as above
HLA-A*03:01 [3] = experiment: IEDB peptide-MHC binding, purified MHC/direct/fluorescence; filed as Kd, often an IC50 or EC50 that approximates it; ≥ and ≤ were set here for values at or beyond the usual limits of such assays
HLA-A*11:01 [4] = experiment: as above
HLA-A*31:01 [5] = experiment: IEDB peptide-MHC binding, purified MHC/competitive/fluorescence; filed as Kd, often an IC50 or EC50 that approximates it; ≥ and ≤ were set here for values at or beyond the usual limits of such assays
HLA-B*15:42 = experiment: as above
HLA-B*45:06 = experiment: as above
HLA-B*83:01 = experiment: as above
HLA-B*08:01 = experiment: as above
HLA-B*35:01 [6] = experiment: as above; settings: source organism: Yersinia pestis Antiqua
HLA-B*39:01 = experiment: as above
HLA-B*51:01 [7] = experiment: as above
HLA-A*02:01 [8] = experiment: IEDB peptide-MHC binding, purified MHC/competitive/radioactivity; filed as Kd, often an IC50 or EC50 that approximates it; ≥ and ≤ were set here for values at or beyond the usual limits of such assays; settings: source organism: Vaccinia virus WR
HLA-A*02:02 = experiment: as above; settings: source organism: Vaccinia virus WR
HLA-A*02:03 = experiment: as above; settings: source organism: Vaccinia virus WR
HLA-A*02:06 = experiment: as above; settings: source organism: Vaccinia virus WR
HLA-A*03:01 [9] = experiment: as above; settings: source organism: Vaccinia virus WR
HLA-A*11:01 [10] = experiment: as above; settings: source organism: Vaccinia virus WR
HLA-A*31:01 [11] = experiment: as above; settings: source organism: Vaccinia virus WR
HLA-A*33:01 = experiment: as above; settings: source organism: Vaccinia virus WR
HLA-A*68:01 = experiment: as above; settings: source organism: Vaccinia virus WR
HLA-A*68:02 = experiment: as above; settings: source organism: Vaccinia virus WR
HLA-A*01:01 = experiment: IEDB peptide-MHC binding, purified MHC/direct/fluorescence; filed as Kd, often an IC50 or EC50 that approximates it; ≥ and ≤ were set here for values at or beyond the usual limits of such assays; settings: source organism: Mus musculus
HLA-A*02:01 [12] = experiment: IEDB peptide-MHC binding, purified MHC/competitive/fluorescence; filed as Kd, often an IC50 or EC50 that approximates it; ≥ and ≤ were set here for values at or beyond the usual limits of such assays; settings: source organism: Homo sapiens
HLA-A*69:01 = experiment: as above; settings: source organism: Homo sapiens
HLA-B*27:03 = experiment: as above; settings: source organism: Homo sapiens
HLA-B*46:01 = experiment: as above; settings: source organism: Homo sapiens
HLA-B*57:01 = experiment: as above; settings: source organism: Homo sapiens
[13] = source organism: Mammarenavirus machupoense
[14] = source organism: Escherichia coli O157:H7
[15] = source organism: Yersinia enterocolitica
[16] = source organism: Yersinia pestis Antiqua
[17] = source organism: Human herpesvirus 4 strain B95-8
[18] = source organism: Vaccinia virus WR

## TPNQPSAEF
HLA-B*07:02; [13]
  Kd: 0.076 µM
HLA-B*35:01 [1]; [13]
  Kd: 0.0403 µM
HLA-B*51:01 [2]; [13]
  Kd: 13 µM
HLA-B*53:01; [13]
  Kd: 0.565 µM
HLA-B*54:01; [13]
  Kd: 18.7 µM

## RAFKYPFIK
HLA-A*03:01 [3]; source organism: Fowlpox virus
  Kd: 0.0068 µM
HLA-A*11:01 [4]; source organism: Fowlpox virus
  Kd: 0.0017 µM
HLA-A*31:01 [5]; source organism: Fowlpox virus
  Kd: 0.06 µM

## GMLVGRLGK
HLA-A*03:01 [3]; [14]
  Kd: 0.0293 µM
HLA-A*11:01 [4]; [14]
  Kd: 0.191 µM
HLA-A*31:01 [5]; source organism: Escherichia coli O157:H7 str. Sakai
  Kd: 0.0137 µM

## TVWNRLIAR
HLA-A*03:01 [3]; [15]
  Kd: 0.0393 µM
HLA-A*11:01 [4]; [15]
  Kd: 0.0326 µM
HLA-A*31:01 [5]; [16]
  Kd: ≤ 0.001 µM

## DEVEFLGHY
HLA-B*15:42; [17]
  Kd: ≥ 5 µM
HLA-B*45:06; [17]
  Kd: ≥ 5 µM
HLA-B*83:01; [17]
  Kd: ≥ 5 µM

## KLAETRMGY
HLA-A*03:01 [3]; [14]
  Kd: 0.0711 µM
HLA-A*11:01 [4]; [14]
  Kd: 0.931 µM
HLA-A*31:01 [5]; source organism: Escherichia coli
  Kd: 0.153 µM

## RLKTTENSF
HLA-B*08:01; source organism: Influenza A virus (A/Northern Territory/60/1968(H3N2))
  Kd: ≥ 20 µM

## MPARLWLCL
HLA-B*08:01; [16]
  Kd: 0.383 µM
HLA-B*35:01 [6]
  Kd: 0.0008 µM
HLA-B*39:01; [16]
  Kd: 0.108 µM
HLA-B*51:01 [7]; [16]
  Kd: ≥ 20 µM

## KVFSFWLLCK
HLA-A*02:01 [8]
  Kd: 1.19 µM
HLA-A*02:02
  Kd: 4.25 µM
HLA-A*02:03
  Kd: 3.36 µM
HLA-A*02:06
  Kd: 8.66 µM
HLA-A*03:01 [9]
  Kd: 0.0063 µM
HLA-A*11:01 [10]
  Kd: 0.00327 µM
HLA-A*31:01 [11]
  Kd: 0.00925 µM
HLA-A*33:01
  Kd: 0.863 µM
HLA-A*68:01
  Kd: 0.0428 µM
HLA-A*68:02
  Kd: ≥ 49.4 µM
HLA-B*07:02; [18]
  Kd: ≥ 44.9 µM
HLA-B*35:01 [1]; [18]
  Kd: ≥ 47.4 µM
HLA-B*51:01 [2]; [18]
  Kd: 17 µM
HLA-B*53:01; [18]
  Kd: 2.34 µM
HLA-B*54:01; [18]
  Kd: 2.55 µM

## SVDSDHLGY
HLA-A*01:01
  Kd: 0.0007 µM
HLA-A*02:01 [12]
  Kd: ≥ 20 µM
HLA-A*69:01
  Kd: ≥ 20 µM
HLA-B*15:42; source organism: Homo sapiens
  Kd: ≥ 5 µM
HLA-B*27:03
  Kd: ≥ 20 µM
HLA-B*39:01; source organism: Homo sapiens
  Kd: ≥ 20 µM
HLA-B*45:06; source organism: Homo sapiens
  Kd: ≥ 5 µM
HLA-B*46:01
  Kd: ≥ 20 µM
HLA-B*51:01 [7]; source organism: Homo sapiens
  Kd: ≥ 20 µM
HLA-B*57:01
  Kd: ≥ 20 µM
HLA-B*83:01; source organism: Homo sapiens
  Kd: ≥ 5 µM

## RPTPKKMNIV
HLA-B*07:02; [18]
  Kd: 0.0524 µM
HLA-B*35:01 [1]; [18]
  Kd: ≥ 48.8 µM
HLA-B*51:01 [2]; [18]
  Kd: ≥ 69.6 µM
HLA-B*53:01; [18]
  Kd: ≥ 69.9 µM
HLA-B*54:01; [18]
  Kd: 5.86 µM
